The values that follow come from US20220396792, “METHOD FOR PRODUCING NUCLEIC ACID MOLECULE, BIOMATERIAL, AND METHOD FOR PRODUCING BIOMATERIAL” (NEC Solution Innovators, Ltd., published 2022).

Some results are limits rather than exact numbers.

In one series the target is VEGF121 (UniProt P15692-9 P15692-9:27-147). The series is described as follows: SPR; signal 0 or less, 5 nM, 25 C. To be noted: tags: PeproTech 100-20A; chain copies: 2. As to the method:
(§1) The analysis of the binding properties was carried out using a ProteOn XPR36 (BioRad) in accordance with its instructions for use.
(§2) First, as a sensor chip designed specifically for the ProteOn, a streptavidin-immobilized chip (trade name: ProteOn NLC Sensor Chip, BioRad) was set in the ProteOn XPR36. 5 μmol/L biotinylated poly(dT) was injected to a flow cell of the sensor chip using ultrapure water (DDW), and the binding was allowed to proceed until the signal intensity (RU: Resonance Unit) was saturated. The biotinylated poly(dT) was prepared by biotinylating the 5′ end of 20-mer deoxythymidine. Then, each of the poly(dA)-added aptamers (200 nmol/L) was injected to the flow cell of the chip using an SB1T buffer at a flow rate of 25 μL/min for 80 seconds, and the binding was allowed to proceed until the signal intensity was saturated. Subsequently, each of the samples (5 nmol/L) was injected using an SB1T buffer at a flow rate of 50 μL/min for 300 seconds, followed by washing performed by flowing the SB1T buffer under the same conditions. With the time at which the injection was started being 0 seconds, the signal intensity after the sample injection was measured. The SPR was carried out at 25° C.
(§3) The horizontal axis indicates the time (sec) elapsed after the start of the sample injection, and the vertical axis indicates the signal intensity (RU).

In series [1] the target is BSA (bovine serum albumin) (Bos taurus, UniProt P02769 P02769:25-607). The series is described as follows: SPR; signal 0 or less, 5 nM, 25 C. The settings on record: tags: Sigma A7906. As to the method: as §1, §2, §3
Sequence of BSA (bovine serum albumin) (P02769 25-607, one chain of several): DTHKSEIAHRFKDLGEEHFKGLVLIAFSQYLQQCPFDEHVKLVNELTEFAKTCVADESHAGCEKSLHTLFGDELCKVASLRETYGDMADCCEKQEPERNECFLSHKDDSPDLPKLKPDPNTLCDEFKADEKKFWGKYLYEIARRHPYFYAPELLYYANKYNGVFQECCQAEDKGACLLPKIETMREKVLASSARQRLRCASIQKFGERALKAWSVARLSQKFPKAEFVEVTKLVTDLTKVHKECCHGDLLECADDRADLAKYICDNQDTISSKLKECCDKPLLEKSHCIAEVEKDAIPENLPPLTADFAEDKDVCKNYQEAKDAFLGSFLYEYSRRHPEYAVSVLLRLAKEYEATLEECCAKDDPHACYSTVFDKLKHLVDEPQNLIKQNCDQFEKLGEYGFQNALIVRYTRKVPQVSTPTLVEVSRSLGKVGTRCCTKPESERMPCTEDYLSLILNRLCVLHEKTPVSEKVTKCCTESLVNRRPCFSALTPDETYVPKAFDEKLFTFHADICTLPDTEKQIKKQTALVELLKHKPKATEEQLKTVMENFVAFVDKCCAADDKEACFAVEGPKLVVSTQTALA
In general terms: Surface plasmon resonance follows binding to a sensor surface in real time, without labels.

Series [2] concerns the target VEGF receptor (KDR/VEGFR2) (UniProt P35968 P35968:20-764). The series is described as follows: SPR; 5 nM receptor alone, 25 C; receptor binds aptamer-bound VEGF165. To be noted: tags: R&D Systems 357-KD-050/CF; chain copies: 2. As to the method:
The aptamers 1 to 5 were used as aptamers, and the VEGF sample and a VEGF receptor sample were used as samples. The VEGF receptor sample was prepared in the same manner as the VEGF sample, except that a VEGF receptor (R&D systems, Cat. No: 357-KD-050/CF) was used instead of the VEGF.
The analysis of binding properties by SPR was carried out in the following manner. First, biotinylated poly(dT) was bound to the sensor chip and each of the poly(dA)-added aptamers was then bound to the chip in the same manner as in Example 1. Subsequently, the 5 nmol/L VEGF sample was injected using an SB1T buffer at a flow rate of 50 μL/min for 240 seconds (first injection), followed by washing performed by flowing the SB1T buffer under the same conditions. Thereafter, the 5 nmol/L VEGF receptor sample was injected using an SB1T buffer at a flow rate of 50 μL/min for 240 seconds (second injection), followed by washing performed by flowing the SB1T buffer under the same conditions. With the time at which the first injection was started being 0 seconds, the signal intensity after the sample injection was measured. The SPR was carried out at 25° C. Also, analysis of binding properties by SPR was carried out in the same manner, except that the first and second injections were performed using the combinations shown in Table 1 below instead of the combination of the VEGF sample and the VEGF receptor sample.
FIGS. 8A to 8E are graphs respectively showing the binding properties of the aptamers 1 to 5 to the samples. […] The horizontal axis indicates the time (sec) elapsed after the start of the first injection, and the vertical axis indicates the signal intensity (RU).

Series [3] addresses T1, VEGF165 (UniProt P15692-4 P15692-4:27-191). The series is described as follows: SPR; 37 C, no Ca, 1 nM VEGF165. To be noted: tags: PeproTech 100-20; chain copies: 2.
Series [4] addresses T1, VEGF165. Put plainly: SPR; 25 C, SB1T pH 7.4, 1 mM MgCl2, 0.01% Tween 20. The settings on record: tags: PeproTech 100-20; chain copies: 2. As to the method: as §2
The pH of the SB1T buffer was 7.4.

T1 sequence (P15692 other isoform, or with tags, fused parts or gaps): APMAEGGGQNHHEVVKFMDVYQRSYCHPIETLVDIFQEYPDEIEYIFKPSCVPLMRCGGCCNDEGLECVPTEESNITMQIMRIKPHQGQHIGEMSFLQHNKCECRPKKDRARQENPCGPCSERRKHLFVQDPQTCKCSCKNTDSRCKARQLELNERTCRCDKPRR
Sequence of VEGF121 (P15692 other isoform, or with tags, fused parts or gaps): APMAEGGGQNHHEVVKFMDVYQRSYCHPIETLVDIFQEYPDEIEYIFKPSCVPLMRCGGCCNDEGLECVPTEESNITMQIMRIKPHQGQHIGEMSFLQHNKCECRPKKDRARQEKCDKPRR
Sequence of VEGF receptor (KDR/VEGFR2) (P35968 20-764, one chain of several): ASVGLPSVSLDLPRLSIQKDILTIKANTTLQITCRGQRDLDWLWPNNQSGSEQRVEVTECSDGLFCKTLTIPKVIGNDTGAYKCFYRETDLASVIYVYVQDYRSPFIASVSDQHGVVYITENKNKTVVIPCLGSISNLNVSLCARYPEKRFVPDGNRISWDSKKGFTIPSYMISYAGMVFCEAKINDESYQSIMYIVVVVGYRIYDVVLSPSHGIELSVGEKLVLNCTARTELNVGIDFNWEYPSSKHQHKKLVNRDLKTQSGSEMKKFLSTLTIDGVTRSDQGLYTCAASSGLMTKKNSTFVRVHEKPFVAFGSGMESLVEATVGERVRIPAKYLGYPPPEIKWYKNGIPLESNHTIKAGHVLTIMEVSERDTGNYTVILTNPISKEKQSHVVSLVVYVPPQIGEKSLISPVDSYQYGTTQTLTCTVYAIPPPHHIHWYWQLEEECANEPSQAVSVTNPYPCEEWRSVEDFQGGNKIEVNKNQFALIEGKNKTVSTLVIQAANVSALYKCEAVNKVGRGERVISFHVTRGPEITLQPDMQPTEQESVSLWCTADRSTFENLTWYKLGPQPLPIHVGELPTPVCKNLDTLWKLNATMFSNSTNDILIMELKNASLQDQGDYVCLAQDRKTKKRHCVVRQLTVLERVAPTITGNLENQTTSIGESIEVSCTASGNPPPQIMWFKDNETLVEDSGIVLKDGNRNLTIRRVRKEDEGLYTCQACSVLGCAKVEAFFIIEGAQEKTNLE

B1: Aptamer 1 VEGF746CaP_R8m1 with 3' poly(dA)20 (ssDNA)
DNA: GGATTGCCCGATTCACCGTAAACAGTTCTGGTTCCTTAGTTTAAAGTCACGTCTTAGTTTAAGGCATTCTGGAGCGGCATAACAAAAAAAAAAAAAAAAAAAA
Take B1: the binding result with VEGF121 is “no binding”; in series [1], “no binding”; in series [2], “no binding”; with VEGF165 [3], “binds”.

B2: Aptamer 6 VEGF_L30_1 with 3' poly(dA)20 (ssDNA)
DNA: CTTAGTTTAAAGTCACGTCTTAGTTTAAGGAAAAAAAAAAAAAAAAAAAA
As for B2, the Kd with VEGF165 [4] is less than 0.001 nM.

B3: Aptamer 11 VEGF_L27_1 with 3' poly(dA)20 (ssDNA)
DNA: TTAGTTTAAAGTCACGTCTTAGTTTAAAAAAAAAAAAAAAAAAAAAA
As for B3, the Kd with VEGF165 [4] was 0.0276 nM.

B4: Aptamer 3 VEGF746CaP_5s49 with 3' poly(dA)20 (ssDNA)
DNA: CCGTAAACAGTTCTGGTTCCTTAGTTTAAAGTCACGTCTTAGTTTAAGGAAAAAAAAAAAAAAAAAAAA
Consider B4, for which the binding result with VEGF121 is on record as “no binding”; in series [1], “no binding”; in series [2], “no binding”; with VEGF165 [3], “binds”.

B5: Aptamer 2 VEGF746CaP_5s31 with 3' poly(dA)20 (ssDNA)
DNA: CCTTAGTTTAAAGTCACGTCTTAGTTTAAGGAAAAAAAAAAAAAAAAAAAA
For B5, the binding result is on record as “no binding” with VEGF121, “no binding” in series [1], “no binding” in series [2] and “binds” with VEGF165 [3].

B6: Aptamer 10 VEGF_L28_2 with 3' poly(dA)20 (ssDNA)
DNA: CTTAGTTTAAAGTCACGTCTTAGTTTAAAAAAAAAAAAAAAAAAAAAA
Regarding B6, binding in the series with VEGF165 [4] was characterised by a dissociation constant (Kd) of 4170 nM.

B7: Aptamer 9 VEGF_L28_1 with 3' poly(dA)20 (ssDNA)
DNA: TTAGTTTAAAGTCACGTCTTAGTTTAAGAAAAAAAAAAAAAAAAAAAA
As for B7, binding with VEGF165 [4] was put at a Kd of 0.0149 nM.

B8: Aptamer 15 VEGF_L23_1 with 3' poly(dA)20 (ssDNA)
DNA: AGTTTAAAGTCACGTCTTAGTTTAAAAAAAAAAAAAAAAAAAA
In turn, B8 gave a Kd in the series with VEGF165 [4] of 92.7 nM.

B9: Aptamer 12 VEGF_L26_1 with 3' poly(dA)20 (ssDNA)
DNA: TAGTTTAAAGTCACGTCTTAGTTTAAAAAAAAAAAAAAAAAAAAAA
In the series with VEGF165 [4], B9 returned a Kd of 0.0545 nM.

B10: Aptamer 7 VEGF_L30_2 with 3' poly(dA)20 (ssDNA)
DNA: CCTTAGTTTAAAGTCACGTCTTAGTTTAAGAAAAAAAAAAAAAAAAAAAA
As to B10, the Kd with VEGF165 [4] is less than 0.001 nM.

B11: Aptamer 8 VEGF_L29_1 with 3' poly(dA)20 (ssDNA)
DNA: CTTAGTTTAAAGTCACGTCTTAGTTTAAGAAAAAAAAAAAAAAAAAAAA
Regarding B11, the Kd in the series with VEGF165 [4] came out at 0.0993 nM.

B12: Aptamer 14 VEGF_L25_1 with 3' poly(dA)20 (ssDNA)
DNA: TAGTTTAAAGTCACGTCTTAGTTTAAAAAAAAAAAAAAAAAAAAA
The molecule B12 showed a Kd in the series with VEGF165 [4] of 800 nM.

B13: Aptamer 13 VEGF_L26_2 with 3' poly(dA)20 (ssDNA)
DNA: TTAGTTTAAAGTCACGTCTTAGTTTAAAAAAAAAAAAAAAAAAAAA
The molecule B13 registered a dissociation constant (Kd) in the series with VEGF165 [4] of 3.49 nM.

B14: Aptamer 5 VEGF746CaP_R8m49 with 3' poly(dA)20 (ssDNA)
DNA: GGATTGCCCGATTCACCGTAAACGTTCTTACATTAGTTTAAAGTCACGTCTTAGTTTAATTAAGCATTCTGGAGCGGCATAACAAAAAAAAAAAAAAAAAAAA
For the molecule B14, the binding result was “no binding” in the series with VEGF121, “no binding” in series [1], “no binding” in series [2] and “binds” with VEGF165 [3].

B15: Aptamer 4 VEGF746CaP_5s62 with 3' poly(dA)20 (ssDNA)
DNA: TTCACCGTAAACAGTTCTGGTTCCTTAGTTTAAAGTCACGTCTTAGTTTAAGGCATTCTGGAAAAAAAAAAAAAAAAAAAAA
With B15, the binding result with VEGF121 is given as “no binding”; in series [1], “no binding”; in series [2], “no binding”; with VEGF165 [3], “binds”.

Broadly, the Kd is a measure of binding affinity in units of concentration. Lower therefore signals higher affinity.
